Data from the DeepSol protein solubility set.

Test: soluble on expression in E. coli; label from the status in PepcDB or PDB records

| Sequence | soluble on expression in E. coli |
| --- | --- |
| MSLKIRSITATPINLRLEAPYGWVFGELDGFSQTIVEVETEDGLIGLGEAPTPAAAAIINDVLAERLVGRDAFDIAGAEHVCLPYWTGVQSINDRTRIMAFGAIEMALWDLRGKAWNQPLYQLLGGAVRKDIPFTDYFSLRGDGPKVKGETTPEEVADYCVELHETHGTTFFEGKFSTEDPKVSLRMVELIRAKLGDEAMIRIDSNQAYSLATARRLARPLEELGVRNWEDPVATIEEMRQLRQHCSIPFSTHNIDIARAMDLKVPDAFVGNPTAHGGIGRLLRFVGACEHAGVDFWCYSGDSGIGSAAYLHLCAALGWIREPNQSLFRMQPMDITEEGPFSPRNNVVRVPEGPGLGVTLSRKNLAACHRDFAENGPCNKYHDPAKPGTYRRLPLNEGHHHHHH | soluble |
| PKLPTISQFNVTPFLAFISPDYKTHIDPNEVESVFEVPANHILNPNKLYSSKFELKRSSHRVFAIPYRQHFIWGMTAQIIESMQKHIISG | not soluble |
| MGSSHHHHHHSSGRENLYFQGHMPCQPACPVSADTWAPSAVPDDYRYADLHLPQQVGQASLAAECAVAISYNGLNQAVMMASPEDIEDFVRGFSLSSGFVESIDDIYEIRVSGQGESLHAEVEISSRAFWNLKRQRRQLAGTSGCGLCGVEALEQALPQLPERSPQALPPAAHLGALRQRIEQAQRLARHSGALHAALYFDGHGELRLCREDIGRHNALDKLIGALHRQGLDAARGFAVVTSRCSLELIHKAVRAGIGTLVSLSAPTALTVQWARRHQLNLIHQPHHNAPRVYSPAPAATE | soluble |
| GPLGSHMASEFINQGDVTEGNNNQEEVYCFCRNVSYGPMVACDNPACPFEWFHYGCVGLKQAPKGKWYCSKDCKEIANQRSKSKRQKRRK | soluble |
| MSEEIKQEVKEEAPETTTEAKTEEAAPVAEVVAEVVTNGDKPAENGKTEEPSKYAETENYKKLIGLKMKPALADVVCEIYESGLLGPEDLDDRAVDIINSVNLDQAKFIFTEIKNSELFGVATKSLYVTSLIRSFKDRCRQQGAAAVTSGKLINGPELAALKNLLETTGYTIEVTIGQRKFGGPPPDWEGPATGPAGQGHEIYVGHIPTDVFEDTLVPLFEKSGKIWDLRLMMDPMSGASRGYAFVTYCNKEDAAAAAKTYDGHEISTGKPLKVNVSIANTRLFIGNIPKTKSKDEILEELKTHAEGVVDVIVYSVPDNEKIKNRGFCFVDFIDHKTASDIKRKIAQHKIRPFNADVYVDWAEHQEEPDEDTMSKVKVLYIRNIKEAVTEEKLNELFKEYASLDRVKKVKDYAFIHFNERDDCLKAMEEWNGKELEGTVVEASLAKPPQEKKKKPVMRGRGFGGAGGGAGNHGQRGGQRGGGQWGGNAGPGGYYPNHFNNGYDMPMPWGGGYGGDMGYGAYGGGYGGGYGGPGAYGDFGAYGGGGFRGGMRGSPRGGMGGGGGFRGGPPGRGGMANRRGRGKRPGDGRGGPASKRDNGKPDFSADVNMSTF | not soluble |
| MSTPFGLDLGNNNSVLAVARNRGIDIVVNEVSNRSTPSVVGFGPKNRYLGETGKNKQTSNIKNTVANLKRIIGLDYHHPDFEQESKHFTSKLVELDDKKTGAEVRFAGEKHVFSATQLAAMFIDKVKDTVKQDTKANITDVCIAVPPWYTEEQRYNIADAARIAGLNPVRIVNDVTAAGVSYGIFKTDLPEGEEKPRIVAFVDIGHSSYTCSIMAFKKGQLKVLGTACDKHFGGRDFDLAITEHFADEFKTKYKIDIRENPKAYNRILTAAEKLKKVLSANTNAPFSVESVMNDVDVSSQLSREELEELVKPLLERVTEPVTKALAQAKLSAEEVDFVEIIGGTTRIPTLKQSISEAFGKPLSTTLNQDEAIAKGAAFICAIHSPTLRVRPFKFEDIHPYSVSYSWDKQVEDEDHMEVFPAGSSFPSTKLITLNRTGDFSMAASYTDITQLPPNTPEQIANWEITGVQLPEGQDSVPVKLKLRCDPSGLHTIEEAYTIEDIEAGSDTKTVKKDDLTIVAHTFGLDAKKLNELIEKENEMLAQDKLVAETEDRKNTLEEYIYTLRGKLEEEYAPFASDAEKTKLQGMLNKAEEWLYDEGFDSIKAKYIAKYEELASLGNIIRGRYLAKEEEKKQAIRSKQEASQMAAMAEKLAAQRKAEAEKKEEKKDTEGDVDMD | soluble |
| MTVQEISRVIDGKRVIVKKPELLIPAGNLEKLKVAIHYGADAVYLGGQEFGLRSNAGNFTLEEMAEGVEFAKKYGAKIYVTTNIFAHNENMDGLEEYLKGIEKAGVTGIIVADPLIIETCKRVAPSVEVHLSTQQSLSNWKAAQYWKEEGLHRLVLAREASYEEMKEIKEKVDIEIEAFVHGAMCIAYSGRCTLSNHMTARDSNRGGCCQSCRWDYDLVQTVSQHKDAKELPLFQEEDAHFAMSPKDLNLILSIPKMIEIGIDSLKVEGRMKSIHYVATVATVYRKVIDAYCADPDNFEFKQEWLDELDKCANRDTAPAFFEGVPGHQEQMFGNHSKKTTYDFAGLVLDYNEETGIVTIEQRNHFKPGHEVEFFGPEIENFTQTVEKIWDEDGNELDAARHPLQIVKFKVDQPVYVNNMMRKSILQ | not soluble |
| MKQTVLKNNLQNLLESAENILLLQGPVGDFFLRLADWLTANGKTVHKFNFNAGDDYFYPPTQAHTVVFNDNYDAFPEFLQEYITQHHIQAVVCFGDTRPYHVIAKRIANENQASFWAFEEGYFRPYYITLEKDGVNAFSPLPRRADFFLEQFPKLAQQEYKAPTPVHGGFTPMAKNAIRYYIELFRNPRKYPDYIHHRAPNAGHYLKPWSLSILKRLNYYIEDIQIAKRVEAGKYGKFFIVPLQVFNDSQVRIHCDFPSVRSFLLHVLSSFAEHAPADTNIIIKHHPMDRGFIDYWRDIKRFIKEHPELKGRVIYVHDVPLPVFLRHGLGMVTINSTSGLSGLIHNMPVKVLGRAYYDIPGITDQNTLAEFWNHPTPPDKELFHAYRMYHLNVTQINGNFYSQVFFPNKKTSNSSTPVI | not soluble |
| MSLPMLQVALDNQTMDSAYETTRLIAEEVDIIEVGTILCVGEGVRAVRDLKALYPHKIVLADAKIADAGKILSRMCFEANADWVTVICCADINTAKGALDVAKEFNGDVQIELTGYWTWEQAQQWRDAGIGQVVYARSRDAQAAGVAWGEADITAIKRLSDMGFKVTVTGGLALEDLPLFKGIPIHVFIAGRSIRDAASPVEAARQFKRSIAELWG | soluble |
| AVLDLDVRTCLPCGPGGKGRCFGPSICCGDELGCFVGTAEALRCQEENYLPSPCQSGQKPCGSGGRCAAAGICCSPDGCEEDPACDPEAAFS | soluble |
| MEYLDEIKTLGLKPNTITYSMLMLASERKDDFEVSFKLLSQAKGDGVSPNLIMCRCITSLCKRRFEKACAGGEPVVSFKSGRPQIENKWTSMALMVYRETISGGTVPTTEVVSQVLGCLQLPHDAALRDRLISTLGINISSQKQHNIFPLVDGFGEYDPRAFSLLEEATSLGVLPSVSFNKIPLFFDTTELPKNVAEVYLLTIFKGLKHRLAAGAKIPHINLIISIQEKEIRTPEGEKTIDLTGRVGQEIGALLRRGFKIIASTIRKPNQSSATQHSTREPVT | not soluble |
| MKEAYAQELIDYYNQSTNDVLKRTASISENEKPRVLFLVYDQRKNSYWTPGGEFYQNNLITMAGGKTVSSDLPTGKAQINVEQAASWNPDVIITSAHTMEYPSTKVKEDVLTDEGWKEINAVKSGNVYAMPFDGESWDTLGSKYVLGLYWTAKTLHPDMYLEHHHHHH | soluble |
| MGEVRVVGIRVEQPQNQPVLLLREANGDRYLPIWIGQSEAAAIALEQQGVEPPRPLTHDLIRDLIAALGHSLKEVRIVDLQEGTFYADLIFDRNIKVSARPSDSVAIALRVGVPIYVEEAVLAQAGLLIPDESDEEATTAVREDEVEKFKEFLDSVSPDDFKAT | soluble |
| TLIHIYDTSEPELDVQVTGYQWKWQYKYLGQDVEYFSNLATPQDQIHNRQAKDEHYLLEVDEPLVLPVGTKVRFLITSSDVIHSWWVPAFAVKRDAIPGFVNEAWTKVDEPGIYRGQCAELCGKDHGFMPIVVDVKPKAEFDQWLAKRKEEAAKVKELTSKEWTKEELVARGDKVYHTICAACHQAEGQGMPPMFPALKGSKIVTGPKEHHLEVVFNGVPGTAMAAFGKQLNEVDLAAVITYERNAWGNDDGDMVTPKDVVAYKQK | not soluble |
| MGSDKIHHHHHHAQTYQQLSEKAIEYIEMDSLSKAEELLLQALKLEPKNAKNAMLFSNLGLVQRRLGEYDKALESYSFALNFAPLAVPILLDRAAINLEMGNTDRAYTDYCQVLDEDKQNKEALLMRAYIYVLRRDYPAARIDYNRLLEIDPQSYSGRLGLATLEQKEGKFKEALEILNKMITATPEDATLYIARADVEREMKHEDLALVDLEEAIRLNPSSADAYLLRGNIYLTQKKKALAKMDFEKAISLGIPPADLHEQLKQCK | not soluble |
| MKGHCHCGAVRWQSDGKVAWSCYCHCADCRRNCAAPVTAFFGLPHESVTWSGDAPRIYRSTDRVERLFCGTCGTQMAYRNADDRVNIHLYTATLEDPSALPPRFHVFHTARLPWLDLQDDLPRFDRTAG | not soluble |
| MGSDKIHHHHHHLKIITVSGPPSSGKTSVIIKTIEYLKKDQLEIGVVKFDSLSTYDDQMYKKLGVKVKVGLSGNLCPDHYYMTNIEDCVKWGVSEKLDMLISESAGLCNRCSPHIRDVLAICVIDNLSGINTPKKIGPMLRLADIVVITKGDIVSQAEREVFAFRAKQSSPRASIVFINGITGQGAYDLSLRLKEANDYESVIDKKLRFSMPAAVCSYCTGEIRIGERYQTGNIKKIKL | not soluble |
| GPGSMANGVTANSMRVNVKAPDLGAFPLDHYSECKSQVEAYYRCLKSNEYVTPLCRDQMREYLQCRMDRGLMKPADLDGFGIPKTEFVPTRQHRIDLKQQWLRQKMNQVTVVWEENYRRDDLQVPDGYEREKGGGDGGGGNPKPVGEKVNT | not soluble |
| MGSDKIHHHHHHIPNLEKSGSNFCMPFKGINVVKKCNMEYFLLNADFVNLEKTVFKKSQTLDNVCTGPENTFKTPDAGNYVVRYGERVLMTYKAGSNYRKCIGTYDVDDDLFTCVMPTDNNGFEGLEMGGFLYDPVTGEPHRDDGSVEVFCKIPHKF | not soluble |
| MGSDKIHHHHHHMAVSSNGGAIKAVIYDCDGVMFDSFEANLAFYQRIMEMMGRPRLSRDNEEQMRILHTYANREVLAHFFPSPGDWEEAVRCAGAIDYRELVPLMIMEEGFREALDTLKGRVGLGVCTNRSTSMDMVLRLFSLDSYFSIVMTASRVTNPKPHPEPLLKVLEHFGIGPREALFVGDSEVDRLSAEAAGVPFVAYKAPLPAAYRMEHHREIIDLLG | not soluble |
| MGSDKIHHHHHHMRKLLVIGLDSVPPLLIEKFRDLIPNLQSLLNVKGKLLSGHPPITVPMWGVMLAGRSAGELGVYGFRHRRPGDVGTSYVVTSRSIAEGWVWDDLGLRLGLRSLVIGVPPGYPARRVRGWFVSCFLTPGVDGAFAWPPGLKREILKASGGDYVFDVKYRVEDKESVRKSLWRLAKTQFKVVKYLLSSKPWDFAMYMHIGTDRVHHAFWKYWDPEHPRYPGEGNPYENVLPEYYSLVDKHIGQLLESLPGDTDVIVVSDHGAKAMKGAFAINQWLEEEGYLSLKEEPKRPGADLEASMIDWDRTMAWAWGGYYSRVYINLKGREPRGIVGREEYWSVVEQLKRDIEKIRGPNGERWENKAYHPSELYPEVRGDAPDLMVYLDNLSWRPAGTIGWPSTYLEENDRGPDDAVHDWHGIIGGNADVLKEAVKDSTVPIQRVKEIILAHYGLESHMKDRGRGAV | not soluble |
| MSNRDQLFKAPPFENHSPLTWYQAASQLPNFIRDDAQAAAIEHLDRLWTELMMFKRKRNRFLGRSLRSPQVPKGLYFYGGVGRGKSFLMDAFFGCLPYRRKRRVHFHAFMAEIHQRLKTLKSESNPLKSVAAEIAKETRVLCFDEFHVSDIADAMILGRLLENLLNEGVVLVATSNYAPSELYPQGQNRSSFLPTIALIESSLTVLNVDGGEDYRLRTLRPAEIFFTPANEENEAKLAKLFKEMTGITDLNPGISTIHGREIPHKAESGRAIWFDFRALCFGPRSQSDYLYLAEHYEMVFISGLEQLSPQEKAEARRLTWLIDVLYDFRVKLCATGAVDVNHIYTEGDFAEEFTRTASRMVEMQSEVYLEQPHLTLSPKASGG | not soluble |
